Source: patent publication US9176064B2, “Bisubstrate fluorescent probes for protein kinase CK2” (University of Tartu, priority 2012, dated 2015)
Where a SMILES comes first, the peptide text is derived from it. [ ]: non-standard residue; d: D form. The star is where a group is joined. X1 = O=C(CCCCCCCn1cnc2c(Br)c(Br)c(Br)c(Br)c21)*

Experiments:
Assay in all cases: Kinase panel residual activity
Type in all cases: biochemical
Conditions in all cases: compound at 1 micromolar
CHK1 = molecular target: T1, CHK1 (Homo sapiens, UniProt O14757)
T1 sequence (O14757 1-476): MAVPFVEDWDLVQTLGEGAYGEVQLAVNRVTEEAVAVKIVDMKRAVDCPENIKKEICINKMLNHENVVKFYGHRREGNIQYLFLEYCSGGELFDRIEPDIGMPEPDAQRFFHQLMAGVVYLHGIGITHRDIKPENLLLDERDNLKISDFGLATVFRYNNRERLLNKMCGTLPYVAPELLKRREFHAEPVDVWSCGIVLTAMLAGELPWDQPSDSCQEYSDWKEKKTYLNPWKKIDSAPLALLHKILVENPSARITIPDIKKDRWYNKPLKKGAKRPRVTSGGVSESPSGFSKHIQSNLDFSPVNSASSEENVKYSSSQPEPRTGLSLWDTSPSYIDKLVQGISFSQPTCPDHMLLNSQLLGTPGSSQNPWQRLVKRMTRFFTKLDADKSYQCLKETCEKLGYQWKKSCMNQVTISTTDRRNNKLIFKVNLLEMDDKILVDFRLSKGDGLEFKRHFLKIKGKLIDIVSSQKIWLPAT

PRK2 = PRK2 (Homo sapiens, UniProt Q16513)
Lck = Lck (Homo sapiens, UniProt P06239)
PKCa = PKCa (Homo sapiens, UniProt P17252)
PAK5 = PAK5 (Homo sapiens, UniProt Q9P286)
PAK4 = PAK4 (Homo sapiens, UniProt O96013)
SIK2 = SIK2 (Homo sapiens, UniProt Q9H0K1)
JAK2 = JAK2 (Homo sapiens, UniProt O60674)
ERK2 = ERK2 (Homo sapiens, UniProt P28482)
PDGFRA = PDGFRA (Homo sapiens, UniProt P16234)
TAO1 = molecular target: T2, TAO1 (Homo sapiens, UniProt Q7L7X3)
T2 sequence (Q7L7X3 1-1001): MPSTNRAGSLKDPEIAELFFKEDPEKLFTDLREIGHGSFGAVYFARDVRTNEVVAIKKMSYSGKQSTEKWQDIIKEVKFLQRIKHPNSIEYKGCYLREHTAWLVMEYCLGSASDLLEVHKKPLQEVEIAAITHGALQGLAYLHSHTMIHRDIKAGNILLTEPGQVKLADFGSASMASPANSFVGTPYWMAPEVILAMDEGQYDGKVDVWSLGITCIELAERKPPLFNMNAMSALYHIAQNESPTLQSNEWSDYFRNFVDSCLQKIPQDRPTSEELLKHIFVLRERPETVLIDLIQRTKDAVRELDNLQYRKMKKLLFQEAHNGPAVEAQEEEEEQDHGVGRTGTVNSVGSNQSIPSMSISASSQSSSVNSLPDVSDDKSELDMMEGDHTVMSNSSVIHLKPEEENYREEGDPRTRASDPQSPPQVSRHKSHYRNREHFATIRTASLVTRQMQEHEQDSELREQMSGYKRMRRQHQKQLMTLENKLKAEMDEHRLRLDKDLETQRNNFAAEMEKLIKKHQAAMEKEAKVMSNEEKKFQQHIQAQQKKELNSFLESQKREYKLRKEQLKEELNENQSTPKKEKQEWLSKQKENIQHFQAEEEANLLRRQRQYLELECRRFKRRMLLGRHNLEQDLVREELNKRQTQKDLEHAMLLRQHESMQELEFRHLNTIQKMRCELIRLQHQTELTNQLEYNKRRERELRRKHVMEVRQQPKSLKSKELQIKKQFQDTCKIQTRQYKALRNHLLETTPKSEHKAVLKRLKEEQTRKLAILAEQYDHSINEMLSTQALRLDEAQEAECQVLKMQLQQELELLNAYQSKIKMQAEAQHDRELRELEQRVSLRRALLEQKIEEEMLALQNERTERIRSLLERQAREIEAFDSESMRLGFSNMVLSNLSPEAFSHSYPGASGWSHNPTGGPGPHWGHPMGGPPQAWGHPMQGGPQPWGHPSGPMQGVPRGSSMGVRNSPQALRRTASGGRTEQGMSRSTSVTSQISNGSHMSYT

RIPK2 = RIPK2 (Homo sapiens, UniProt O43353)
MKK1 = MKK1 (Homo sapiens, UniProt Q02750)
TIE2 = TIE2 (Homo sapiens, UniProt Q02763)
RSK1 = RSK1 (Homo sapiens, UniProt Q15418)
ABL = ABL (Homo sapiens, UniProt P00519)
MINK1 = MINK1 (Homo sapiens, UniProt Q8N4C8)
CLK2 = CLK2 (Homo sapiens, UniProt P49760)
TAK1 = molecular target: T3, TAK1 (Homo sapiens, UniProt O43318)
T3 sequence (O43318 1-303 limits assumed): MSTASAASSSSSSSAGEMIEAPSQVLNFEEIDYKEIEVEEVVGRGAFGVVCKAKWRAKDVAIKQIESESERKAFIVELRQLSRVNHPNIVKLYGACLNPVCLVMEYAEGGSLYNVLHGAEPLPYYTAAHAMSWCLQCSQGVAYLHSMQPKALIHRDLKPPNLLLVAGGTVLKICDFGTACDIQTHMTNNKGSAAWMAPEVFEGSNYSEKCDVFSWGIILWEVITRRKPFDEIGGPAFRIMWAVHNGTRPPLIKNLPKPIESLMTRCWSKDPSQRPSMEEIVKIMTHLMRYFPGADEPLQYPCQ

SYK = SYK (Homo sapiens, UniProt P43405)
BTK = BTK (Homo sapiens, UniProt Q06187)

RSK1, sequence (Q15418 whole entry, species assumed): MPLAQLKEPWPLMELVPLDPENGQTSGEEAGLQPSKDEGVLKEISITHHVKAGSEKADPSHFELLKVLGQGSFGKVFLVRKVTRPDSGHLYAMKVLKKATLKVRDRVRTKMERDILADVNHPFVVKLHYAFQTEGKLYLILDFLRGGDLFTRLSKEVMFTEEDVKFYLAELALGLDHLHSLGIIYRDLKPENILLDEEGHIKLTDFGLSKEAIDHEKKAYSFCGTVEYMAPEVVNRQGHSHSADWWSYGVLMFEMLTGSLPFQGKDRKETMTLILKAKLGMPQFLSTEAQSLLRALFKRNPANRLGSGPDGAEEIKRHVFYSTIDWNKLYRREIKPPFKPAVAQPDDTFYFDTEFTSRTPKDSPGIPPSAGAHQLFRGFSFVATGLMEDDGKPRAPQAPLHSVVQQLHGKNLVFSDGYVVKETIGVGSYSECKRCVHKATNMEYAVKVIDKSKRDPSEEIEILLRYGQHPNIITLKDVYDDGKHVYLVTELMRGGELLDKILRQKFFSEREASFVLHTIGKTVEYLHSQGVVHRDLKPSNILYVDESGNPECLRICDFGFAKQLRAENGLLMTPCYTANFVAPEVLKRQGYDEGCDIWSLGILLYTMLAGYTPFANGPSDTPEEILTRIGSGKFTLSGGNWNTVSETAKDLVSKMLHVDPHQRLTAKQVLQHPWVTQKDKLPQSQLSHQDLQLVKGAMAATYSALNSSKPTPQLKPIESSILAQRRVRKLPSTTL
ABL, sequence (P00519 whole entry, species assumed): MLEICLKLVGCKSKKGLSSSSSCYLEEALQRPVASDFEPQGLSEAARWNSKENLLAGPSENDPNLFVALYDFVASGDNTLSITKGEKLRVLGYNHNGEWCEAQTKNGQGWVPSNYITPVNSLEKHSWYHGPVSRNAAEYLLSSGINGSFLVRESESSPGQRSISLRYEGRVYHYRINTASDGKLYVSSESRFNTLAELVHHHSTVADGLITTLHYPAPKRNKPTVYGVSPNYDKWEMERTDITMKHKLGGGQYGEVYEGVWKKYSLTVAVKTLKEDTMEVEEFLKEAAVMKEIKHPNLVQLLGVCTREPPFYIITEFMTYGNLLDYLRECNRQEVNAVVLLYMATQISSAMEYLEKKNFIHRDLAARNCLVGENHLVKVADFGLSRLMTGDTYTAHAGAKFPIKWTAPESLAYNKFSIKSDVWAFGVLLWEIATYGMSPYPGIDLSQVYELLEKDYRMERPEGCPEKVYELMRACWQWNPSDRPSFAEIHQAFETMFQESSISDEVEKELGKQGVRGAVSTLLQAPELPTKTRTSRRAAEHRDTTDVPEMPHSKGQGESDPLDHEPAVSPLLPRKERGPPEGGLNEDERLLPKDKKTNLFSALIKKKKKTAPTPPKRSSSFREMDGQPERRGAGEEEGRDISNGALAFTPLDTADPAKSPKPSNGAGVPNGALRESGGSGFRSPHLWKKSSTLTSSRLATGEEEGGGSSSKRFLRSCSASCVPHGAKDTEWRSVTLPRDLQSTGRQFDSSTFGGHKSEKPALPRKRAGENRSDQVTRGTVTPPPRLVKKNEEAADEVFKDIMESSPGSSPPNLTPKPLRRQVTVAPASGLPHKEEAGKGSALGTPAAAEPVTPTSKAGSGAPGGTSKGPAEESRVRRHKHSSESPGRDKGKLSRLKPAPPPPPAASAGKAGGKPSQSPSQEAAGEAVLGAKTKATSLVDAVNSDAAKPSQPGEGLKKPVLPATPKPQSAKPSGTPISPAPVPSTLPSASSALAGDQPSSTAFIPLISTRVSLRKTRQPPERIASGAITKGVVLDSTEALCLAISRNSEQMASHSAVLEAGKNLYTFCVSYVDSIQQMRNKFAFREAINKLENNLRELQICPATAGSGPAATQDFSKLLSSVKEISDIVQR
PAK5, sequence (Q9P286 whole entry): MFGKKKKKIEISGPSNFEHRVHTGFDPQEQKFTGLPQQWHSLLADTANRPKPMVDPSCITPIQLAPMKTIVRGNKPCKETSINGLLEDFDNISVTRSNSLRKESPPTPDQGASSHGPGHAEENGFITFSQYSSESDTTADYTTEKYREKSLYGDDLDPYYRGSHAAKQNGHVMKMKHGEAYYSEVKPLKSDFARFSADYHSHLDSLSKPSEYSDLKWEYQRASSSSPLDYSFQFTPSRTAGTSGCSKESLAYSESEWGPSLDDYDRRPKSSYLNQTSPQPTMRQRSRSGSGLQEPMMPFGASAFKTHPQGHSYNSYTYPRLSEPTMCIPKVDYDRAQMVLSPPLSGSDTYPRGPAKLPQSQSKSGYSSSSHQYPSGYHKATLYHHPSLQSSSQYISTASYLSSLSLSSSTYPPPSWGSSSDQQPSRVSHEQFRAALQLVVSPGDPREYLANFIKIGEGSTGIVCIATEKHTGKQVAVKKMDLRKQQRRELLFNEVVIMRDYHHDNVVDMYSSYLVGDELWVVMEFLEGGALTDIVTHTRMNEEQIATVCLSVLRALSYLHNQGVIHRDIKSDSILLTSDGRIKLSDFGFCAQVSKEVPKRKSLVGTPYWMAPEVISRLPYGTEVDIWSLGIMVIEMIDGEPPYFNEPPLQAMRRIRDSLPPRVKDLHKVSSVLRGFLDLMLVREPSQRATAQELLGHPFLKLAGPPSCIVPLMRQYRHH
MINK1, sequence (Q8N4C8 whole entry, species assumed): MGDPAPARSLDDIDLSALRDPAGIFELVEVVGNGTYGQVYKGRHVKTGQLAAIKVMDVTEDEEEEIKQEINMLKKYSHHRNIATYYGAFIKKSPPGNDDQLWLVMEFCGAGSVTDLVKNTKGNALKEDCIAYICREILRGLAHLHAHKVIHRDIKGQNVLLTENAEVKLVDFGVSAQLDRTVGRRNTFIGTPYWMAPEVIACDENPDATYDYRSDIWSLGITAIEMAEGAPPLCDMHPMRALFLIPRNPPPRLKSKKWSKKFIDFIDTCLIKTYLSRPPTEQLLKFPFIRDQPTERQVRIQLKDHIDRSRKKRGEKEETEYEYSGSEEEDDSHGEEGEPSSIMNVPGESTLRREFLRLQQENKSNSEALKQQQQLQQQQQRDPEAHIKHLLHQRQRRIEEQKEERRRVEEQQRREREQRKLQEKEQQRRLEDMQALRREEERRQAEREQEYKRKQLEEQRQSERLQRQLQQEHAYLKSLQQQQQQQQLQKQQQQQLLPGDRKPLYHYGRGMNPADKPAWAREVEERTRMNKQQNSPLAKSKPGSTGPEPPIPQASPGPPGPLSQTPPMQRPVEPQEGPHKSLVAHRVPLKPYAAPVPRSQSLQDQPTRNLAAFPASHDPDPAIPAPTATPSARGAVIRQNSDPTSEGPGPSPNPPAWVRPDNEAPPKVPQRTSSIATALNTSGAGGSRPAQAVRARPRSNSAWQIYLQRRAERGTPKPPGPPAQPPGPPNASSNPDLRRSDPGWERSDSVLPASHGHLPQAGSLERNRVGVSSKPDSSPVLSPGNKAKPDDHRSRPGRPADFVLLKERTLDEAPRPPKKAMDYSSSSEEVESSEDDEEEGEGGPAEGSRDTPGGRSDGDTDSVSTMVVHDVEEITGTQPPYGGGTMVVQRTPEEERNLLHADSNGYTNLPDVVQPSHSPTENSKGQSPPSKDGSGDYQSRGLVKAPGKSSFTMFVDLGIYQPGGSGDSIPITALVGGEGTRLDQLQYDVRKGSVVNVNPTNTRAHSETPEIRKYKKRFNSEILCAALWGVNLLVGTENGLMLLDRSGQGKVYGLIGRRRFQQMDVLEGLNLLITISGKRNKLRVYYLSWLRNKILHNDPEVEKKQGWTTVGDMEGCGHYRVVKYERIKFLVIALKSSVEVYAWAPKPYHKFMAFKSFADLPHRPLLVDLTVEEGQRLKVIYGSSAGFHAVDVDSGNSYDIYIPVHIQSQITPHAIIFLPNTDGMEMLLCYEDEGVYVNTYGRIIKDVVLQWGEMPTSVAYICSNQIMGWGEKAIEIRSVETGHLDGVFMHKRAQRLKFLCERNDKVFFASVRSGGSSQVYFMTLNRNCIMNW
MKK1, sequence (Q02750 whole entry, species assumed): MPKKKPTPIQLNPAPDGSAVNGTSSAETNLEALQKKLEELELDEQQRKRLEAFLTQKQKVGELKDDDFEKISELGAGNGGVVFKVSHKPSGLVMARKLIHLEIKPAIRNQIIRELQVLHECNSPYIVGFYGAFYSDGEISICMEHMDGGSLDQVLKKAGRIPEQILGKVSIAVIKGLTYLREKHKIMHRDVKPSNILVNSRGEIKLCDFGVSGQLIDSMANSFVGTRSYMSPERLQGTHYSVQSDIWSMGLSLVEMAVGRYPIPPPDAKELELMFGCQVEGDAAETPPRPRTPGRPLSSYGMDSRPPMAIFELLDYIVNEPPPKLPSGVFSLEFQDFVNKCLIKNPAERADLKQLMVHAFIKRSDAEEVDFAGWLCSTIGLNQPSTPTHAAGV

## NCCCC[C@H](NC(=O)[C@H](CC(=O)O)NC(=O)[C@H](CC(=O)O)NC(=O)[C@H](CC(=O)O)NC(=O)[C@H](CC(=O)O)NC(=O)[C@H](CC(=O)O)NC(=O)[C@@H](CC(=O)O)NC(=O)CCCCCCCn1cnc2c(Br)c(Br)c(Br)c(Br)c21)C(=O)O [TBBI-OcA-(D-Asp)-(L-Asp)5-(L-Lys)-OH] (X1-[dD]DDDDDK-OH)
CHK1
  remaining activity at 1 µM: 134%
PRK2
  remaining activity at 1 µM: 92%
Lck
  remaining activity at 1 µM: 62%
PKCa
  remaining activity at 1 µM: 94%
PAK5
  remaining activity at 1 µM: 81%
PAK4
  remaining activity at 1 µM: 71%
SIK2
  remaining activity at 1 µM: 74%
JAK2
  remaining activity at 1 µM: 66%
ERK2
  remaining activity at 1 µM: 92%
PDGFRA
  remaining activity at 1 µM: 77%
TAO1
  remaining activity at 1 µM: 84%
RIPK2
  remaining activity at 1 µM: 120%
MKK1
  remaining activity at 1 µM: 101%
TIE2
  remaining activity at 1 µM: 105%
RSK1
  remaining activity at 1 µM: 88%
ABL
  remaining activity at 1 µM: 101%
MINK1
  remaining activity at 1 µM: 139%
CLK2
  remaining activity at 1 µM: 24%
TAK1
  remaining activity at 1 µM: 62%
SYK
  remaining activity at 1 µM: 100%
BTK
  remaining activity at 1 µM: 80%
